From paper PMC9966682, “Lactose and Galactose Promote the Crystallization of Human Galectin-10” (Molecules, 2023)

Target: the molecule itself
Assay: SEC; size-exclusion HPLC, Spherogel-TSK-2000SW; Gal-10 diluted to 100 μM, incubated 2 h at 4 °C; PBS–azide buffer (6.7 mM KH2PO4, 150 mM NaCl, 14 mM β-mercaptoethanol, 0.02% NaN3), pH 7.4; monomer–dimer equilibrium

B1: Recombinant human Charcot–Leyden crystal (CLC) protein (natural protein, UniProt Q05315 1-142, looked up)
chain: MSLLPVPYTEAASLSTGSTVTIKGRPLACFLNEPYLQVDFHTEMKEESDIVFHFQVCFGRRVVMNSREYGAWKQQVESKNMPFQDGQEFELSISVLPDKYQVMVNGQSSYTFDHRIKPEAVKMVQVWRDISLTKFNVSYLKR
notes: Galectin-10 (Charcot-Leyden crystal protein), human; the introduction gives 142 amino-acid residues; also called Galectin-10; Gal-10; source: E. coli, bought: Cloud-Clone Corp., purified with Ni-nitrilotriacetic acid resin
- stoichiometry N: 2
